Changes are numbered by the printed parent chain. Names may count otherwise.
B1: full-length wild-type Spef1 (mouse) (natural protein, UniProt Q99JL1 1-234, looked up)
chain: MESSVDEEALHQLYLWVDNIPLSRPKRNLSRDFSDGVLVAELIKFYFPKMVEMHNYVPANSLQQKLSNWGHLNRKVLNKLNFSVPDDVMRKIAQCSPGVVELVLIPLRQRLEERQRRQKLGVGSLQELAPQDSSGYMDMGLPQKVRGEGAPALGEQLREGRPLASRPPGYNQALQGDPSFVLQIAEKEQELLASQETVQVLQMKVKRLEHLLQLKNVRIDDLSRRLQQAERKQR
notes: Spef1 (sperm flagellar protein 1, CLAMP), mouse, full length; also called WT; CLAMP; source: E. coli BL21(DE3), purified (Ni2+-Sepharose, size-exclusion chromatography)
B2: Spef1 K206A/R207A mutant (full-length) (natural protein, mouse, UniProt Q99JL1 1-234, looked up)
chain: B1 chain with K206A, R207A
notes: Spef1, mouse, full length, with K206A and R207A on the coiled-coil surface; also called KR; charge-changing mutant; source: E. coli BL21(DE3), purified (Ni2+-Sepharose, size-exclusion chromatography)
B3: Spef1 E186A/E188A/E190A mutant (full-length) (natural protein, mouse, UniProt Q99JL1 1-234, looked up)
chain: B1 chain with E186A, E188A, E190A
notes: Spef1, mouse, full length, with E186A, E188A and E190A on the coiled-coil surface; also called charge-changing mutant; source: E. coli BL21(DE3), purified (Ni2+-Sepharose, size-exclusion chromatography)

Molecular target: the molecule itself
Assay: SEC-MALS; ~1 mg/ml protein in 50 mM Tris-HCl pH 8.0, 500 mM NaCl, 1 mM EDTA, 1 mM DTT; WTC SEC column, 18-angle light scattering; oligomeric state (dimer or monomer)

Stoichiometry N, 2:
B1
B2
B3

From paper doi:10.1101/2025.07.31.667833, “Coiled-coil-mediated phase separation of Spef1 for non-centrosomal microtubule organization and function” (bioRxiv, 2025)
